# Data published in patent US5543392A, “Digestive tract cell activating agent of EGF and lactoferrin” (Morinaga Milk Industry Co., Ltd., priority 1992, dated 1996).
# B1: bLf: bovine lactoferrin (manufactured by Yukijirushi Nyugyo Company) (protein, UniProt P24627 20-708, looked up)
# Lactotransferrin: APRKNVRWCTISQPEWFKCRRWQWRMKKLGAPSITCVRRAFALECIRAIAEKKADAVTLDGGMVFEAGRDPYKLRPVAAEIYGTKESPQTHYYAVAVVKKGSNFQLDQLQGRKSCHTGLGRSAGWIIPMGILRPYLSWTESLEPLQGAVAKFFSASCVPCIDRQAYPNLCQLCKGEGENQCACSSREPYFGYSGAFKCLQDGAGDVAFVKETTVFENLPEKADRDQYELLCLNNSRAPVDAFKECHLAQVPSHAVVARSVDGKEDLIWKLLSKAQEKFGKNKSRSFQLFGSPPGQRDLLFKDSALGFLRIPSKVDSALYLGSRYLTTLKNLRETAEEVKARYTRVVWCAVGPEEQKKCQQWSQQSGQNVTCATASTTDDCIVLVLKGEADALNLDGGYIYTAGKCGLVPVLAENRKSSKHSSLDCVLRPTEGYLAVAVVKKANEGLTWNSLKDKKSCHTAVDRTAGWNIPMGLIVNQTGSCAFDEFFSQSCAPGADPKSRLCALCAGDDQGLDKCVPNSKEKYYGYTGAFRCLAEDVGDVAFVKNDTVWENTNGESTADWAKNLNREDFRLLCLDGTRKPVTEAQSCHLAVAPNHAVVSRSDRAAHVKQVLLHQQALFGKNGKNCPDKFCLFKSETKNLLFNDNTECLAKLGGRPTYEEYLGTEYVTAIANLKKCSTSPLLEACAFLTR
# Key:
# IEC18 cells [1] = experiment: Test 2: effect of simultaneous use of Lf or Lf-Hy and EGF on DNA synthesis (3H-thymidine incorporation); format: cell-based, rat; conditions: single use of bLf, various concentrations
# IEC18 cells [2] = experiment: Test 3: proliferation of small intestine epithelial cells (cell count by hemocytometer); format: cell-based, rat; conditions: single addition of 50 μg/ml; sixth and tenth days of culture; compared with control group and EGF single group
# Experimental: ICE18 cells (the same ones as in the Test 1) were inoculated onto a 24-well culture plate by 5,000 cells per well, and were cultured for ten days with 1% FBS DMEM (0.5 ml) containing the following test subjects. During this test period, the medium was replaced on the third and the sixth days, and the number of cells was measured on the third, the sixth and the tenth days. The number of cells was counted by a hemocytometer after treating the cells with 0.25% trypsin solution and suspending them in the solution.
# The test subjects included a sample added with nothing, a sample added with 10 ng/ml EGF, a sample added with 50 μg/ml bLf or bLf-Hy, and a sample added with 10 ng/ml EGF and 50 μg/ml bLf or bLf-Hy.
molecule,measurement,setting,value
B1,quantity of incorporated 3H-thymidine into DNA (FIG. 1),IEC18 cells [1],no effect
same,number of cells (FIGS. 3 and 4),IEC18 cells [2],significantly increased
